{
  "source": "patent US20240043495A1",
  "about": "“DSG2 COMPOSITIONS AND METHODS FOR THE TREATMENT OF COVID-19” (priority 2020, published 2024)",
  "molecules": {"B1": {"name": "EA(491-602)-6xHis: fusion of DSG2 amino acids 491-602 of SEQ ID NO: 1 (EA) to a hexahistidine peptide tag (protein, listed as Homo sapiens)", "chain": "DINDNCPTLIEPVQTICHDAEYVNVTAEDLDGHPNSGPFSFSVIDKPPGMAEKWKIARQESTSVLLQQSEKKLGRSEIQFLISDNQGFSCPEKQVLTLTVCECLHGSGCREA", "modifications": "C-terminal 6xHis tag"}, "B2": {"name": "DSG2(50-602)-6xHis: fusion polypeptide of DSG2 amino acids 50-602 of SEQ ID NO: 1 (complete extracellular domain) to a hexahistidine peptide tag (protein, listed as Homo sapiens)", "chain": "AWITAPVALREGEDLSKKNPIAKIHSDLAEERGLKITYKYTGKGITEPPFGIFVFNKDTGELNVTSILDREETPFFLLTGYALDARGNNVEKPLELRIKVLDINDNEPVFTQDVFVGSVEELSAAHTLVMKINATDADEPNTLNSKISYRIVSLEPAYPPVFYLNKDTGEIYTTSVTLDREEHSSYTLTVEARDGNGEVTDKPVKQAQVQIRILDVNDNIPVVENKVLEGMVEENQVNVEVTRIKVFDADEIGSDNWLANFTFASGNEGGYFHIETDAQTNEGIVTLIKEVDYEEMKNLDFSVIVANKAAFHKSIRSKYKPTPIPIKVKVKNVKEGIHFKSSVISIYVSESMDRSSKGQIIGNFQAFDEDTGLPAHARYVKLEDRDNWISVDSVTSEIKLAKLPDFESRYVQNGTYTVKIVAISEDYPRKTITGTVLINVEDINDNCPTLIEPVQTICHDAEYVNVTAEDLDGHPNSGPFSFSVIDKPPGMAEKWKIARQESTSVLLQQSEKKLGRSEIQFLISDNQGFSCPEKQVLTLTVCECLHGSGCREA", "modifications": "C-terminal hexahistidine tag"}},
  "key": {"[1]": {"tested_on": "human iPSC cardiomyocytes", "assay": "CiPA multielectrode array (MEA) assay, cardiomyocyte sodium spike", "format": "cell-based", "details": "voltage (μV) at 0-96 hours; antibodies/IgG 0.5 μg/mL; lidocaine 10 μM; FIG. 5", "experimental": "To determine the effect of anti-DSG2 antibodies in cardiomyocytes, the cardiac in vitro proarrhythmia (CiPA) assay was performed (Sager et al. Am Heart J 2014; 167:292-300; the contents of which are herein incorporated by reference in its entirety). CiPA is envisioned to consist of four components: (1) an evaluation of the effects of test agents on cardiac ion channel assays; (2) in silico modeling of the cardiac action potential based on the ion channel results to integrate the data with cardiac function; (3) experimental measurement of test agent effects in human ventricular myocytes to confirm the modeling result; and (4) scoring the results. […] The sodium spike quantified below is a measurement of the specific sodium channel current in the cardiomyocyte and is also described in Blinova K, et al. Cell Rep. […] The parameters evaluated include measuring a change in the spike in the component of electrical signal propagation (e.g. sodium spike) and cell index—a function of cell impedance and cell number. […]\nCommercially available anti-DSG2 antibodies were tested in the cardiomyocyte CiPA assay. […] The voltage (μV) is measured at time intervals of 0, 1 hour, 12 hours, 24 hours, 48 hours, 72 hours, and 96 hours. […]"}, "[2]": {"tested_on": "human iPSC cardiomyocytes", "assay": "iPSC-derived cardiomyocyte MEA assay, cell index", "format": "cell-based", "details": "antibodies 0.00005 to 5 μg/mL; lidocaine 3 to 100 μM", "experimental": "To determine the effect of anti-DSG2 antibodies in cardiomyocytes, the cardiac in vitro proarrhythmia (CiPA) assay was performed (Sager et al. Am Heart J 2014; 167:292-300; the contents of which are herein incorporated by reference in its entirety). CiPA is envisioned to consist of four components: (1) an evaluation of the effects of test agents on cardiac ion channel assays; (2) in silico modeling of the cardiac action potential based on the ion channel results to integrate the data with cardiac function; (3) experimental measurement of test agent effects in human ventricular myocytes to confirm the modeling result; and (4) scoring the results. The multielectrode array (MEA) assay is a component of CiPA which uses human induced pluripotent stem cell (iPSC)-derived cardiomyocytes to evaluate two-dimensional excitation propagation by recording spontaneous ECG-like field potentials. The sodium spike quantified below is a measurement of the specific sodium channel current in the cardiomyocyte and is also described in Blinova K, et al. Cell Rep. 2018 Sep. 25; 24(13):3582-3592 (the contents of which are herein incorporated by reference in its entirety). […] The parameters evaluated include measuring a change in the spike in the component of electrical signal propagation (e.g. sodium spike) and cell index—a function of cell impedance and cell number. […]"}, "[3]": {"target": "Anti-DSG2 antibody", "assay": "anti-DSG2 antibody MSD assay; inhibition of the signal of anti-DSG2 antibody at 1000 ng/mL (control)"}, "[4]": {"target": "Anti-DSG2 antibody", "assay": "anti-DSG2 antibody MSD assay; inhibition of the signal of anti-DSG2 antibody at 200 ng/mL (control)"}, "[5]": {"tested_on": "anti-DSG2 antibodies in sera of post-COVID-19 patients", "assay": "Electrochemical immunoassay: blocking of post-COVID-19 patient sera binding to the DSG2 extracellular domain", "parameters": "species or system human", "details": "fusion polypeptide 10 μg/mL, post-COVID-19 patient sera 10% (v/v), FIG. 3", "experimental": "DSG2 fusion polypeptides were investigated for the ability to block the binding of anti-DSG2 antibodies in sera of post-COVID-19 patients to the DSG2 extracellular domain in an electrochemical immunoassay. The fusion polypeptides were added to a final concentration of 10 μg/mL and patient sera were used at a final concentration of 10% (v/v). The results are shown in the series of bar charts in FIG. 3, where the numbers 001, 002, 003, 004, 005 and 006 indicate individual post-COVID-19 patient serum samples.\nIn FIG. 3, the first data series from the left is for DSG2FP #1 (described above as amino acids 49-608 of SEQ ID NO:30; Linker (IEGRMD (SEQ ID NO: 28)); amino acids 100-330 of IgG1 (SEQ ID NO: 4). The second data series from the left is for DSG2(50-602)-6xHis, which is a fusion polypeptide of DSG2 amino acids 50-602 of SEQ ID NO: 1 (complete extracellular domain) to a hexahistidine peptide tag. The third data series from the left is for a combination of fusion polypeptides which includes EC1(50-155)-6xHis, a fusion of DSG2 amino acids 50-155 of SEQ ID NO: 1 (EC1) to a hexahistidine peptide tag and EC2(151-268)-6xHis, a fusion of DSG2 amino acids 151-268 of SEQ ID NO: 1 (EC2) to a hexahistidine peptide tag. The fourth data series from the left is for EA(491-602)-6xHis, a fusion of DSG2 amino acids 491-602 of SEQ ID NO: 1 (EA) to a hexahistidine peptide tag. […]"}},
  "data": [
    {"molecule": "CCN(CC)CC(=O)Nc1c(C)cccc1C", "note": "[Lidocaine, lidocaine]", "values": [
      {"measurement": "effect on cardiomyocyte sodium spike", "setting": "[1]", "result": "dampen the sodium spike"},
      {"measurement": "effect on cell index (in words)", "setting": "[2]", "result": "marked reduction in cell index and likely cell death"}
    ]},
    {"molecule": "recombinant human desmoglein-2 Fc chimera protein, CF (R&D Systems) (Fc fusion)", "values": [
      {"measurement": "% inhibition", "setting": "[3]", "result": 88.4, "unit": "%"},
      {"measurement": "% inhibition", "setting": "[4]", "result": 63.8, "unit": "%"}
    ]},
    {"molecule": "B1", "values": [
      {"measurement": "blocking activity (in words)", "setting": "[5]", "result": "some effectiveness in blocking activity"}
    ]},
    {"molecule": "B2", "values": [
      {"measurement": "blocking activity (% inhibition)", "setting": "[5]; 100% inhibition = complete blocking", "result": "at least 70%"}
    ]}
  ]
}
